Results reported in publication doi:10.1101/2024.11.27.625426 (bioRxiv, 2024).

What was measured:
[1] = target: T1, NA of influenza B-Victoria lineage virus B/Colorado/06/2017 (B/Vic CO17) (Influenza B virus B/Colorado/06/2017 …, UniProt A0A1X9RX69); assay: ELISA; settings: both partners purified
T1 construct: not shown: His6, N-terminal, kept

[2] = target: sNAp of A/New Caledonia/20/1999 (NC99, H1N1) NA (Influenza A virus A/New …, UniProt Q7TG96, stabilised); assay: ELISA; settings: both partners purified

Binder | binding result [1] | binding result [2]
NCS.1.1 mAb (IgG) (antibody, V domains shown, copies: 2 + 2) VH: QVQLQESGPRLVKPSETLSLTCSVSGESISSGGYYWTWIRQHPGKGLEWIGNIFDTGSTDYSPSLKTRLTISIDTSKNQFYLRLNSATAADTAVYYCARVGFSLETDRPYYLGLDVWGQGTTVTVSS VL: DIVMTQSPLSLPVTPGEPASISCRSSQSLLHSNGYTYLDWYLQKPGQSPQLLISFTSNRASGVPDRFSGSGSGTYFTLKISRVEAEDVGVYYCMQAVQTPWTFGQGTKVEIK | binds | binds
NCS.1.3 mAb (IgG) (antibody, V domains shown, copies: 2 + 2) VH: QVQLQESGPRLVKPSETLSLTCSVSGESISSGGYYWTWIRQHPGKGLEWIGNIFDTGSTDYSPSLKTRLTISIDTSKNQFYLRLTSATAADTAVYYCARVGFSLETDRPYYLGLDVWGQGTTVTVSS VL: DIVMTQSPLTLPVTPGEPASISCRSSQSLLHSNGYTYLDWYLQKPGQSPQLLIYFASNRASGVPDRFSGSGSGTYFTLKISRVEAEDVGVYYCMQAVQSPWTFGQGTKVEIK | binds | binds
